The record followed here is patent US20220354929A1, “PEPTIDES AND USES THEREOF” (LATERAL IP PTY LTD, priority 2019, published 2022).

Experiment [1] deals with dorsal root afferent-mediated synaptic inputs to dorsal horn neurones. Put plainly: whole-cell recording in spinal cord slices from Chung models: dorsal root afferent-mediated synaptic inputs (evoked EPSPs/IPSPs). The class given is cell-based, rat. Conditions: for effect on dorsal root-evoked IPSPs (in words): prolactin 500 nM, 0.1 Hz and 5 Hz. The method, then: (§1) An in vitro spinal cord slice with intact dorsal root afferents combined with single-cell whole-cell patch clamp electrophysiological recording techniques was used to assess the electrophysiological properties of the peptides having the amino acid sequence of SEQ ID NO:2, 3, 4 and 5.
(§2) Chung model rats, aged 8 to 12 weeks, were housed in an air-conditioned room on a 12 hour light/dark cycle with food and water available ad libitum. The rats were terminally anaesthetized using isofluorane and decapitated. The vertebral column, rib cage and surrounding tissues were rapidly removed and pinned under ice-cold (<4° C.), high sucrose-containing artificial cerebrospinal fluid (aCSF) comprising: 127 mM sucrose, 1.9 mM KCl, 1.2 mM KH2PO4, 0.24 mM CaCl2, 3.9 mM MgCl2, 26 mM NaHCO3, 10 mM D-glucose and 0.5 mM ascorbic acid. A laminectomy was performed and the spinal cord and associated roots gently dissected and teased out of the spinal column and surrounding tissues. Dura and pia mater and ventral roots were subsequently removed with fine forceps and the spinal cord hemisected. Care was taken to ensure dorsal root inputs to the spinal cord were maintained. The hemisected spinal cord-dorsal root preparations were secured to a tissue slicer and spinal cord slices (400 to 450 μm thick) with dorsal roots attached were cut in chilled (<4° C.) high sucrose aCSF using a Leica VT1000s microtome.
(§3) Slices were transferred to a small beaker containing ice cold aCSF with 127 mM NaCl, 1.9 mM KCl, 1.2 mM KH2PO4, 1.3 mM MgCl2, 2.4 mM CaCl2, 26 mM NaHCO3 and 10 mM D-glucose, and rapidly warmed to 35° C. ±1° C. in a temperature-controlled water bath over a 20 minute period, then subsequently removed and maintained at room temperature (22° C. ±2° C.) prior to electrophysiological recording. Electrophysiological recording was performed in aCSF comprising 127 mM NaCl, 1.9 mM KCl, 1.2 mM KH2PO4, 1.3 mM MgCl2, 2.4 mM CaCl2, 26 mM NaHCO3 and 10 mM D-glucose.
Whole-cell recordings were performed at 34-35° C. from Lamina I or II neurones in the dorsal horn of the spinal cord slices using Axopatch 1D and/or Multiclamp 700B amplifies and using the “blind” version of the patch-clamp technique.
Patch pipettes were pulled from thin-walled borosilicate glass with resistances of between 3 and 8 MS2 when filled with intracellular solution (140 mM potassium gluconate, 10 mM KCl, 1 mM EGTA-Na, 10 mM HEPES, 4 mM Na2ATP, 0.3 mM Na-GTP). The peptides of SEQ ID NOs:2, 3, 4 or 5 (LAT7771, LAT7772, LAT7773 or LAT7774) were diluted in the tissue bath at a concentration of 5 μM.
A concentric bipolar stimulating electrode was placed appropriately either on the dorsal root or dorsal root entry zone to evoke postsynaptic potentials/currents in recorded cells (see FIG. 1). […] EPSPs/EPSCs were confirmed as monosynaptic on the basis of being characterised by a constant latency and rise-time with few failures.
Recordings were monitored on an oscilloscope and stored on digital audio tapes for later off-line analysis. In addition, data were low-pass filtered at 2-5 kHz, (1 kHz for voltage-clamp data), digitized at 2-10 kHz and stored on a PC running pCLAMP 10 data acquisition software (Axon Instruments). Analysis of electrophysiological data was carried out using Clampfit 10 software.

In another experiment the test system is dorsal horn neurones. Put plainly: whole-cell patch clamp recording in spinal cord slices from Chung models of neuropathic pain: membrane properties of dorsal horn neurones. The class given is cell-based, rat. Conditions: for ΔVm, change in membrane potential: prolactin 500 nM vs rest.
Text: as §1
The spinal nerve ligation model (Chung model) was first reported by Kim and Chung (1992; Pain, 50(3):355-63) and involves a single tight ligation of the L5 spinal nerve. […] This model has been used as a “gold standard” model for assessing the efficacy of novel compounds targeting neuropathic pain.
Adult male Sprague-Dawley rats, 8-9 weeks old, weighing 220-250 g at the time of surgery, were purchased from Charles River UK Ltd. The animals were housed in groups of 4 in an air-conditioned room on a 12-hour light/dark cycle. Food and water were available ad libitum. They were allowed to acclimatise to the experimental environment for three days by leaving them on a raised metal mesh for at least 40 min. The baseline paw withdrawal threshold (PWT) was examined using a series of graduated von Frey hairs for 3 consecutive days before surgery and re-assessed on the 6th to 8th day after surgery and on the 12th to 14th day after surgery before drug dosing. Each rat was anaesthetized with 5% isoflurane mixed with oxygen (2L per min) followed by an intramuscular (i.m.) injection of ketamine 90 mg/kg plus xylazine 10 mg/kg. The back was shaved and sterilized with povidone-iodine. The animal was placed in a prone position and a para-medial incision was made on the skin covering the L4-6 level. The L5 spinal nerve was carefully isolated and tightly ligated with 6/0 silk suture. The wound was then closed in layers after a complete hemostasis. A single dose of antibiotics (Amoxipen, 15 mg/rat, i.p.) was routinely given for prevention of infection after surgery. The animals were placed in a temperature-controlled recovery chamber until fully awake before being returned to their home cages.
as §2, §3
Whole-cell recordings were performed at 34-35° C. from Lamina I or II neurones in the dorsal horn of the spinal cord slices using Axopatch 1D and/or Multiclamp 700B amplifies and using the “blind” version of the patch-clamp technique. […]
For orientation: The patch-clamp technique gives a direct electrical read-out from membranes.

The mark [2] stands for this setting: peptide 5 μM, responding neurones.
[3] abbreviates: prolactin 500 nM, control = 100.

“And” between values parts separate entries of the source, which are not always exact repeats. Equal entries are not always repeated. “Also recorded” adds a separate entry of the source.

On to CRIIHNNNCG [LAT7772], for which, in experiment [1] (peptide 5 μM, dorsal root stimulation 0.1 Hz), the “effect on dorsal root-evoked EPSPs / excitatory synaptic transmission (in words)” value is given as “suppressed dorsal root-evoked excitatory posts-synaptic potentials (EPSPs) in all neurones tested; also recorded: suppressive effect on EPSPs; also recorded: suppressed dorsal root afferent-mediated excitatory synaptic transmission”. Also, in the experiment with dorsal horn neurones (peptide 5 μM), the “effect on membrane potential / postsynaptic membrane properties (in words)” value is “overall had little effect on membrane potential; also recorded: small membrane depolarisation in 2 neurones; also recorded: both membrane depolarisations and hyperpolarisations; also recorded: hyperpolarisation”; the “effect on neuronal input resistance (in words)” value was “decrease in neuronal input resistance in all 5 neurones; also recorded: significant decrease in neuronal input resistance; also recorded: reduction in neuronal input resistance”; the “neuronal input resistance, of control” value was 60.1±12.3 % of control. The “change in neuronal input resistance” value with dorsal horn neurones (peptide 5 μM vs control) was 149.1±81.7 MS2. Also, the “ΔIR, change in neuronal input resistance” value with dorsal horn neurones (peptide 5 μM vs control, table prints control minus drug, text the magnitude) was determined as 149.1 MΩ. In the experiment with dorsal horn neurones (peptide 5 μM, all cells), the “Input Resistance, mean in presence of peptide” value is given as 172.3 MΩ and the “neuronal input resistance in the presence of peptide” value was 172.3±33.2 MS2. Besides, the “Membrane Potential, mean in presence of peptide” value with dorsal horn neurones (peptide 5 μM, all cells, ipsilateral to injury) was −58.7±4.8 mV and −58.7 mV. Further, in the experiment on dorsal horn neurones (peptide 5 μM, control = 100), the “Normalised Input Resistance, mean in presence of peptide” value worked out at 60.1 and the “Normalised Input Resistance, ΔIR” value came out at 39.9. For the same molecule, in the experiment with dorsal horn neurones (peptide 5 μM, individual neurones), the “reversal potential of peptide-induced response (intersection of VI relations)” value is “around −78 mV and ~−55 mV and −100 mV and −60 mV and around −60 mV”. Further, in the experiment on dorsal horn neurones (setting [2]), the “membrane depolarisation in individual neurones” value was found to be 12.7 mV; the “membrane hyperpolarisation in individual neurones” value was 3.5 mV and 9.9 mV. Also, in the experiment on dorsal horn neurones (peptide 5 μM, rest = 100), the “Normalised Membrane Potential, mean in presence of peptide” value is 98.6 and the “Normalised Membrane Potential, ΔVm” value was 1.4.

B1: Prolactin: native prolactin peptide (e.g., human prolactin of SEQ ID NO:30); parent prolactin protein (protein)
chain: MNIKGSPWKGSLLLLLVSNLLLCQSVAPLPICPGGAARCQVTLRDLFDRAVVLSHYIHNLSSEMFSEFDKRYTHGRGFITKAINSCHTSSLATPEDKEQAQQMNQKDFLSLIVSILRSWNEPLYHLVTEVRGMQEAPEAILSKAVEIEEQTKRLLEGMELIVSQVHPETKENEIYPVWSGLPSLQMADEESRLSAYYNLLHCLRRDSHKIDNYLKLLKCRIIHNNNC
For the molecule B1, in experiment [1], the “effect on dorsal root-evoked IPSPs (in words)” value is “no effect on IPSPs evoked by dorsal root stimulation in one cell”. In addition, the “effect on dorsal root-evoked IPSPs (in words)” value in experiment [1] (listed as prolactin) is listed as “little effect on dorsal root stimulated inhibitory post-synaptic potentials (IPSPs)”. Besides, in the experiment with dorsal horn neurones (prolactin 500 nM), the “Input Resistance, mean in presence of prolactin” value turned out to be 637.3 MΩ; the “effect on membrane potential (in words)” value is “principally induced membrane depolarisation”; the “effect on neuronal input resistance (in words)” value is listed as “increase in neuronal input resistance”; the “neuronal input resistance in the presence of prolactin” value worked out at 637.3±301.1 MS2. Moreover, in the experiment with dorsal horn neurones (prolactin 500 nM vs control), the “increase in neuronal input resistance” value is recorded as 79.0±60.5 MS2 and the “ΔIR, change in neuronal input resistance” value is recorded as −79.0 MΩ. Besides, the “ΔVm, change in membrane potential” value in the experiment with dorsal horn neurones was −2.8 mV. Further, the “ΔVm, change in membrane potential” value with dorsal horn neurones (listed as prolactin) was 2.8±2.0 mV. Moreover, the “Membrane Potential, mean in presence of prolactin” value in the experiment on dorsal horn neurones (prolactin 500 nM, all cells) is −52.0 mV. Besides, in the experiment on dorsal horn neurones (prolactin 500 nM, all cells, listed as prolactin), the “Membrane Potential, mean in presence of prolactin” value is −52.0±8.4 mV. Moreover, in the experiment with dorsal horn neurones (setting [3]), the “Normalised Input Resistance, mean in presence of prolactin” value was 113.9 and the “Normalised Input Resistance, ΔIR” value is listed as −13.9. Besides, in the experiment on dorsal horn neurones (prolactin 500 nM, listed as prolactin), the “effect on membrane potential (in words)” value is on record as “small membrane depolarisation in 2 neurones; also recorded: little effect on a further dorsal horn neurone; also recorded: marginal membrane depolarisation”. Moreover, in the experiment on dorsal horn neurones (prolactin 500 nM, one cell), the “reversal potential of prolactin-induced depolarisation (VI relations)” value is reported as “around −90 mV”. Further, in the experiment with dorsal horn neurones (prolactin 500 nM, rest = 100), the “Normalised Membrane Potential, mean in presence of prolactin” value is recorded as 95.8 and the “Normalised Membrane Potential, ΔVm” value came out at 4.2.
